Here are results for one molecule from publication PMC11665552, “Talin1 dysfunction is genetically linked to systemic capillary leak syndrome” (JCI Insight, 2024).

The target of the experiment is T1, WT talin1 R12-R13-DD (murine, UniProt P26039 2138-2541).
T1 construct: talin1, murine, rod domains R12 and R13 and the dimerization domain (DD), residues 2138-2541; also called WT-R12-R13-DD; R12-R13-DD WT
Briefly: SEC; 100 uM talin and 100 uM Vd1 (1:1 ratio), Superdex 200 Increase 10/300 GL, room temperature (25°C). To be noted: both partners purified. (Size exclusion chromatography separates by hydrodynamic size, large species first.)

T1 sequence (P26039 2138-2541): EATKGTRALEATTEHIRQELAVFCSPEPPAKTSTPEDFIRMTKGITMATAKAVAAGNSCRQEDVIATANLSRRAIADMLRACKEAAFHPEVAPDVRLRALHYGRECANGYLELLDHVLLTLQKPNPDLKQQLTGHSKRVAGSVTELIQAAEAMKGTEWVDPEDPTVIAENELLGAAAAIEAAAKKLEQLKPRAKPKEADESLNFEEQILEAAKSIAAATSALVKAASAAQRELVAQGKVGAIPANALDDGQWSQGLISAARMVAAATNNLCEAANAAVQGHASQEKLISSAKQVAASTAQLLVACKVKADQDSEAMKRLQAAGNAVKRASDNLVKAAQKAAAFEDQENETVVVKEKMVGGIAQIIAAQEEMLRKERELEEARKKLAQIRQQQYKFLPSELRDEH

B1: talin-binding domain 1 of vinculin (Vd1) (domain or fragment, chicken, UniProt P12003 1-258, looked up)
chain: MPVFHTRTIESILEPVAQQISHLVIMHEEGEVDGKAIPDLTAPVSAVQAAVSNLVRVGKETVQTTEDQILKRDMPPAFIKVENACTKLVRAAQMLQADPYSVPARDYLIDGSRGILSGTSDLLLTFDEAEVRKIIRVCKGILEYLTVAEVVETMEDLVTYTKNLGPGMTKMAKMIDERQQELTHQEHRVMLVNSMNTVKELLPVLISAMKIFVTTKNTKSQGIEEALKNRNFTVEKMSAEINEIIRVLQLTSWDEDAW
notes: vinculin, chicken, domain 1 (Vd1), residues 1-258; expressed from a pET-15b plasmid; also called vinculin Vd1 domain
As for B1, the binding result was “binds”.
